# Source: the nanobody polyreactivity screen of Harvey et al. (2022)
# Test: yeast display, Sf9 membrane polyspecificity reagent, FACS + sequencing; frameworks hold sequencing errors
# Summary of the method: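 Galactose induction of a Saccharomyces cerevisiae BJ5465 synthetic nanobody display library ran 36–48 hours. The cells were then stained for 1 hour at 4 °C with 10% biotinylated, detergent-solubilized Sf9 membrane reagent, pulled down on streptavidin microbeads and FACS-sorted into low and high (top ~1%) gates on expression and reagent-binding fluorescence. Labels for polyreactivity follow the gate of origin.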
row,Sequence,polyreactivity (PSR sort gate)
1,QVQLVESGGGLVQAGGSLRLSCAASGIIFYHNAMGWYRKAPGKERELVATIRSSGDGTYYADSVKGRFTISRDNAKNTVYLQMNSLKPEDTAVYYCAAYWAHSYSYSVSRRYYYWGQGTQVTVSS,low polyreactivity
2,QVQLVESGGGLVQAGGSLRLSCAASGIIFYHYAMGWYRPAPGKEREFVAAITWDGGNTSYADSVKGRFTISRDYAKNTFYLQMNSLIPEDTAVYYCNTDRGPVKVSPLYESWGQGTQVTVSS,low polyreactivity
3,QVQLVESGGGLVQAGGSLRLSCAASGIIFYHYAMGWYRQAPGKEREFVAAITWDGGNTYYADSVKGRFTISRDNAKNTVYLQMNSLKPEDTAVYYCNTDRGPVKVSPLYESWGQGTQVTVSS,low polyreactivity
4,QVQLVESGGGLVQAGGSLRLSCAASGIIFYIYTMAWYRQAPGKERELVAAINRSGSRTYYADSVKGRFTISRDNAKNTVYLQMNSLKPEDTAVYYCAAGTGSRDDYWGQGTQVTVSS,high polyreactivity
5,QVQLVESGGGLVQAGGSLRLSCAASGIIFYLYAMGWYRQARGKEWELVAAISRRGVSTYYADSLMGRFTISRDNAKNTVYLQMNSLKPEDTAVYYCAAAGFGYTGEEYWGQGTQVTVSS,high polyreactivity
6,QVQLVESGGGLVQAGGSLRLSCAASGIIFYPNAMGWYRQAPGKERELVAAISWRSGSTYYADSVKGRFTISRDNAKNTVYLQMNSLKPEDTAVYYCAADRRRSYIWRYDYWGQGTQVTVSS,low polyreactivity
7,QVQLVESGGGLVQAGGSLRLSCAASGIIFYPYAMGWYRQAPGKERELVAGISWSGGRTYYADSVKGRFTISRDNAKNTVYLQMNSLKPEDTAVYYCAARYRQRAYDYWGQGTQVTVSS,high polyreactivity
8,QVQLVESGGGLVQAGGSLRLSCAASGIIFYPYAMGWYRQEPGKERYLVASISSGGDTNYADSVKGRFTISRDNAKNTVYLQMNSLKPEDTAVYYCAARVRVQYWWEYYYWGQGTQVTVSS,high polyreactivity
9,QVQLVESGGGLVQAGGSLRLSCAASGIIFYQYAMGWYRQAHGKERELVAAISSRGGSTYYADSVKGRFTISLDNAKNTVYLLMNSLKPEDTAVYYCAAGSTGSTDGYWGQGTQVTVSS,high polyreactivity
10,QVQLVESGGGLVQAGGSLRLSCAASGIIFYRYAMGWYRQAPGKERELVAAINTSGGRTYYADSVKGRFTISRDNAKNTVYLQMNSLKPEDTAVYYCAAYYSPVGFQYDYWGQGTQVTVSS,high polyreactivity
11,QVQLVESGGGLVQAGGSLRLSCAASGIIFYSNAMGWARQAPGKETELVAGISKSGGSTYYADSVKGRFTISRDNAQNTVYLQMHSLKPEDTAVYYCAVRGGGRYRSWGYDYWGQGTQVTVSS,high polyreactivity
12,QVQLVESGGGLVQAGGSLRLSCAASGIIFYSYAMGWYRQAPGKERELVAAISRRGTSTFYADSVKGRFTISRDNAKNTVYLQMNSLKPEDTAVSYCNARYKYYRGSGMDSWGQGTQVTVSS,high polyreactivity
13,QVQLVESGGGLVQAGGSLRLSCAASGIIFYSYTMGWYRQAPGKERELVAAISRNGGGTYYADSEKGRFTISRDNAKNTVYLQMNSLNPEETAVYYCAAEVDQWYYRGYDYWGQGTQVTVSS,high polyreactivity
14,QVQLVESGGGLVQAGGSLRLSCAASGIIFYVNAMGWYRQAPGKERELVAAITFGGDSTYYADSVKGRFTISRDNAKNTVYLQMNSLKPEDTAVYYCAADYVALYYWYDYWGQGTQVTVSS,low polyreactivity
15,QVQLVESGGGLVQAGGSLRLSCAASGIIFYWYAMGWYRQSPGKERELVATITSTGGSTNYADSVKGRFTISRDNAKNTVYLQMNSLKPEDTAVYYCNADRYGIYYYSRLPFDYWGQGTQVTVSS,low polyreactivity
16,QVQLVESGGGLVQAGGSLRLSCAASGIIFYYYAMGWYRPAPGKERELVAAITSSGVRTYYADSVKGRFTLSRDTAKNTVYLQMNSLKPEDTAVYYCAASVSWPRVSQRARYGYYYWGQGTQVTVSS,high polyreactivity
17,QVQLVESGGGLVQAGGSLRLSCAASGIIFYYYAMGWYRQAPGKERELVAAISWSGDGTYYADSVKGRFTISRDKAKNTVYLQMNSLKPEDTAVYYCAALNDGFTGYDYLDEYTDYGYWGQGTQVTVSS,low polyreactivity
18,QVQLVESGGGLVQAGGSLRLSCAASGIIFYYYVMGWYRQAPGKERELVAAISRSGGRTRYADSVKGRFTISRDNAKNTVYLQMNSLKPEDTAVYYCAAVGSVNYDADFDYWGQGTQVTVSS,high polyreactivity
19,QVQLVESGGGLVQAGGSLRLSCAASGIIIDSNAMGWYRQAPGKERELVADITSGGSTKYADSVKGRFTISRDNAKNTVYLQMNSLKPEDTAVYYCNADFRPADQWSYFYEMDSWGQGTQVTVSS,low polyreactivity
20,QVQLVESGGGLVQAGGSLRLSCAASGIIIDTNAMGWYRQAPGTERELVASISKRGGSTYYADSVKGRFTISRDNAKNTVYLQMNSLKPEDTAVYYCNALRRRQYHDDYWGQGTQVTVSS,high polyreactivity
21,QVQLVESGGGLVQAGGSLRLSCAASGIIIDYYAMGWYRQAPGKERELVAAITSGGSTSYADSVKGRFTISRDNAKNTVYLQMNSLKPEDTAVYYCNTEPSGYESGYWGQGTQVTVSS,low polyreactivity
22,QVQLVESGGGLVQAGGSLRLSCAASGIIIDYYTMGWYRQAPGKERELVAAINKSGGSTYADSVKGRFTISRDNAKNTVYLQMKSLKPEDTAVYYCAAEVDYSDWPEYARKYYYWGQGTQVTVSS,low polyreactivity

row,Sequence,polyreactivity (PSR sort gate)
1,QVQLVESGGGLVQAGGSLRLSCAASGIIIDYYTMGWYRQAPGKERELVAAINKSGGSTYADSVKGRFTISRDNAKNTVYLQMNSLKPEDTAVYYCAAEVDYSYSPEYARKYYYWGQGTQVTVSS,low polyreactivity
2,QVQLVESGGGLVQAGGSLRLSCAASGIIIQINAMGWYRQAPGKERELVAAITIDGTTNYADSVKGRFTISRDNAKNTVYLQMNSLKPEDTAVYYCARRRSVYVWEPYQYDYWGQGTQVTVSS,low polyreactivity
3,QVQLVESGGGLVQAGGSLRLSCAASGIIIRYYGMGWYRQAPGKERELVARIRWTGGSTYYADSVKGRFTISRDNAKNTVYLQMNSLKPEDTAVYYCAAQWKYRQSYLDYYWGQGTQVTVSS,low polyreactivity
4,QVQLVESGGGLVQAGGSLRLSCAASGIILGKNAMGWYRQAPGKERELVASITSGAGITYYADSVKGRFTISRDTAKNTVYLQMNSLKPEDTAVYYCNTYPYLWGQGTQVTVSS,low polyreactivity
5,QVQLVESGGGLVQAGGSLRLSCAASGIILGPYAMGWYRQAPGKERELVAAISWRGGSTYYADSVKGRFTISRDNAKNTVYLQMNSLKPEDTAVYYCATASRTSRTGWAGYYWGQGTQVTVSS,high polyreactivity
6,QVQLVESGGGLVQAGGSLRLSCAASGIILPYYVMGWYRQAPGKEREFVADITWSGGSTYYADSVKARFTISRDNAKNTVYLQMNSLKPEDTAVYYCAAEGQWYYFFDMDYWGQGTQVTVSS,high polyreactivity
7,QVQLVESGGGLVQAGGSLRLSCAASGIILREYTMGWYRQAPGKERELVAAISGSGGSTYYADSVKGRFTISRDNAKNTVYLQMNSLKPDDTAVYYCNAVIAAKARDAVVGSGMDYWGQGTQVTVSS,high polyreactivity
8,QVQLVESGGGLVQAGGSLRLSCAASGIILSLYAMGWYRQAPGKERELVATIRFSGGSTYYADSVKGRFTISRDNAKNTVYLQMNSLKPEDTAVYYCNKHLATTFTVSRFDYWGQGTQVTVSS,low polyreactivity
9,QVQLVESGGGLVQAGGSLRLSCAASGIILTEYAMGWYRQAPGKERELVAAINRVGSTNYADSVKGRFTISRDNAKNTVYLQMNSLKPEDTAVYYCAAGTYYNDYDYWGQGTQVTVSS,low polyreactivity
10,QVQLVESGGGLVQAGGSLRLSCAASGIILVQYVMGWYRQAPGKERELVASISRTGGSTYYADSVKGRFTISRDNAKNTVYLQMNSLKPEDTAVYYCAALAYRYSYPRGYWGQGTQVTVSS,high polyreactivity
11,QVQLVESGGGLVQAGGSLRLSCAASGIILYFYDMGWYRQAPGKERELVAVITGGGGSTYYADSVKGRFTISRDNAMNTVYLQMNSLKPEDTAVYYCAALPWFPDEEYDYWGQGTQVTVSS,high polyreactivity
12,QVQLVESGGGLVQAGGSLRLSCAASGIILYVYGMGWYRQAPGKERELVATITWSDGGTYYADSVKGRFTISRDNAKNTVYLQMNSLKPEDTAVYYCNVVVVNGWVTTPGYDYWGQGTQVTVSS,low polyreactivity
13,QVQLVESGGGLVQAGGSLRLSCAASGIILYYNAMGWYRQAPGKERALVAAITTSGVSTYYADSVKGRFTISRDNAKNTVYLQMNSLKPEDTAVYYCNADYLYGRYTYDYWGQGTQVTVSS,low polyreactivity
14,QVQLVESGGGLVQAGGSLRLSCAASGIILYYYAMGWYRQAPGKERELVAAINWSGGSTSYADSVKGRFTISRDNAKNTVYLQMNSLKPEDTAVYYCAARLGSWHYQVWNDKYEYWGQGTQVTVSS,high polyreactivity
15,QVQLVESGGGLVQAGGSLRLSCAASGIILYYYAMGWYRQAPGKERELVASISRGDSTNYADSVKGRFTISRDNAKNTVYLQMNSLKPEDTAVYCNKDYLPSLYRGFDYWGQGTQVTVSS,low polyreactivity
16,QVQLVESGGGLVQAGGSLRLSCAASGIIQPRYAMGWYRQAPGKERELVAAISRGGGTYYADSVKGRFTISRDNAKNTVYLQMNSLIPEYSAVYNCASAYVFVGSSHYYWGQGTQVTVSS,high polyreactivity
17,QVQLVESGGGLVQAGGSLRLSCAASGIISSVYAMGWYRQAPGKERELVAAISGSGGSTYYADSVKGRFTISRDNAKNTVYLQMNSLKPEDTAVYYCAIGYQYQGNSYGYWGQGTQVNVSS,low polyreactivity
18,QVQLVESGGGLVQAGGSLRLSCAASGIISSVYAMGWYRQAPVKERELVAAISGSGGSTYYADSVKGRFTISRDNAKNTVYLQMNSLTPEDTAVYYCAKGYQYQGNSYGYWGQGTQVTVSS,low polyreactivity
19,QVQLVESGGGLVQAGGSLRLSCAASGIISYLYAMGCYRQAPGKEREWVAVIRTSDAITYYADSVKGRFTISRDNAKNTVYLQMNSLKPQDTAVYYCAAAGYAWWGEYEYWGQGTLVTVSS,high polyreactivity
20,QVQLVESGGGLVQAGGSLRLSCAASGIISYRYGMGWYRQAPGKEGELVAAISWSGGSTYYADSVKGRFTISRDNAKNTVYLQMNSRKPEDTAVYYCAAYWRQAGVFKIYDYWGQGTQVTVSS,high polyreactivity
21,QVQLVESGGGLVQAGGSLRLSCAASGIIVYYYAMGWYRPAPGKERELVAAISTSGTRTFYADSVKGRFTISRDNAKKTVYLQMNSLKPEDTAVYYCAARIYKPQRCTSLYRTSGYWGQGTQVTVSS,high polyreactivity
